Data on 3 substances can be found in publication PMC4967826, “Combined structural, biochemical and cellular evidence demonstrates that both FGDF motifs in alphavirus nsP3 are required for efficient replication” (Open Biology, 2016).

Test [1] has as its target GFP-nsP3-36-F3ANC (Semliki Forest virus). Put plainly: MST.
For test [2], the target named is GFP-nsP3-36-F3AC (Semliki Forest virus). Put plainly: MST.
In test [3] the target is GFP-nsP3-36-F3AN (Semliki Forest virus). In words: MST.
The target in test [4] is GFP-nsP3-36 (GFP fused to the C-terminal 36 residues of SFV nsP3, C-terminal His tag) (Semliki Forest virus). Put plainly: MST.
For test [5], the target named is nsP3-F3AC of virus SFV-F3AC (Semliki Forest virus).
The test system of the next test is G3BP-1 F15A mutant. Particulars: isothermal titration calorimetry; ref [28]; cited from earlier work. The source says:
The importance of the hydrophobic FGDF-binding site of G3BP-1 has been validated in previous binding studies using mutated versions of G3BP in which Phe-33 and Phe-15 were substituted to tryptophan and alanine, respectively. Both Phe-33 and Phe-15 are localized centrally within the hydrophobic binding site that coordinates the phenylalanine residues of the FGDF motif (figure 2b,c).

Consider “NTF2-like domain of human G3BP-1 (residues 1-139) (from UniProt Q13283 1-139) (domain or fragment)”, for which the results for the dissociation constant (Kd) in test [1] and in test [3] were 17 µM and 5.8 µM, respectively. Also, the values for the binding constant of the high-affinity binding event in test [2] and in test [4] were 410 nM and 150 nM, respectively. Moreover, the figures for the binding constant of the low-affinity binding event in test [2] and in test [4] were 23 µM and 4.1 µM, respectively.

On to “G3BP-1 (endogenous, BHK cells) (from UniProt A0A9J7JVX0 1-465) (natural protein)”, for which, in test [5], the G3BP-1 in the IP relative to SFV WT (densitometry) came out at 49.5%.

Consider “DSGFSFGSK [nucleoporin (Nup)-derived peptide]”, for which the “binding affinity to F15A mutant of G3BP-1” value in the test on G3BP-1 F15A mutant is on record as “five times lower binding affinity”.

By Kd is commonly meant a measure of binding affinity in units of concentration.
